According to patent US20250154242A1 (ADAFRE BIOSCIENCES, published 2025):

Molecular target: TNFR
Test: cell-based or functional assay

B1: cynomolgus TNFα (ligand)
chain: VRSSSRTPSDKPVAHVVANPQAEGQLQWLNRRANALVANGVELTDNQLVVPSEGLYLIYSQVLFKGQGCPSNHVLLTHTISRIAVSYQTKVNLLSAIKSPCQRETPEGAEAKPWYEPIYLGGVFQLEKGDRLSAEINLPDYLDFAESGQVYFGIIAL
modifications: biotinylated in the binding ELISA (sites not given)
  EC50, stimulation of HEK-Blue TNFα cells (SEAP reporter): 3.1 pM
